Experiments:
[1] = biological target: Protease P (SEQ ID NO 5) variant G127S + G128P + G129S + Y130P + D131S + M134L; test: Ki fitted from Suc-AAPF-pNA activity in Model B detergent; IF relative to SEQ ID NO 5
[2] = biological target: Protease P (SEQ ID NO 5) variant G128P; test: as above
[3] = biological target: Protease P (SEQ ID NO 5) variant M103A; test: as above
[4] = biological target: Protease P (SEQ ID NO 5) variant M103S; test: as above
[5] = biological target: Protease P (SEQ ID NO 5) variant Q64F; test: as above
[6] = biological target: Protease P (SEQ ID NO 5) variant Q64N; test: as above
[7] = biological target: Protease C (SEQ ID NO 6) variant L134V (Lederbergia lenta (Bacillus lentus)) (UniProt P29600); test: Ki fitted from Suc-AAPF-pNA activity in Model B detergent; IF relative to SEQ ID NO 6
[8] = biological target: Protease C (SEQ ID NO 6) variant N60A (Lederbergia lenta (Bacillus lentus)) (UniProt P29600); test: as above
[9] = biological target: Protease C (SEQ ID NO 6) variant N60F + S100I (Lederbergia lenta (Bacillus lentus)) (UniProt P29600); test: as above
[10] = biological target: Protease C (SEQ ID NO 6) variant V103A (Lederbergia lenta (Bacillus lentus)) (UniProt P29600); test: as above
[11] = biological target: Protease C (SEQ ID NO 6) (Lederbergia lenta (Bacillus lentus)) (UniProt P29600); test: Ki fitted from Suc-AAPF-pNA activity in Model B detergent; IF relative to SEQ ID NO 6 (the reference itself)
[12] = biological target: TY145 (SEQ ID NO 3) variant G182A; test: Ki fitted from Suc-AAPF-pNA activity at 8 inhibitor concentrations in Model B detergent; IF relative to SEQ ID NO 3
TY145 (SEQ ID NO 3) variant G182A, sequence (chain, as listed by the source G182A G182A limits assumed): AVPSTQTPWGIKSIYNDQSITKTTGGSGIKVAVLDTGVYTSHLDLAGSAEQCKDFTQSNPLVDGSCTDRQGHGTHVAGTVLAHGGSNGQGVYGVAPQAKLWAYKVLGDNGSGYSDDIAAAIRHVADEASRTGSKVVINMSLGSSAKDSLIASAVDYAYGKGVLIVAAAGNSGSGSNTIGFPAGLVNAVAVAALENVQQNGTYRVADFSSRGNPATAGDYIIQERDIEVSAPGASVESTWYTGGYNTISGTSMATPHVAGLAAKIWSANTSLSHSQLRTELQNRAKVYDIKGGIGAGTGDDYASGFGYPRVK

[13] = biological target: TY145 (SEQ ID NO 3) variant I150N; test: as above
TY145 (SEQ ID NO 3), sequence (chain, as listed by the source limits assumed): as the sequence (chain, as listed by the source G182A G182A limits assumed) above, with A182G counted along it

[14] = biological target: TY145 (SEQ ID NO 3) variant I150S; test: as above
TY145 (SEQ ID NO 3) variant I150S, sequence (chain, as listed by the source I150S I150S limits assumed): as the sequence (chain, as listed by the source G182A G182A limits assumed) above, with I150S, A182G counted along it

[15] = biological target: TY145 (SEQ ID NO 3) variant L184F; test: as above
TY145 (SEQ ID NO 3) variant L184F, sequence (chain, as listed by the source L184F L184F limits assumed): as the sequence (chain, as listed by the source G182A G182A limits assumed) above, with A182G, L184F counted along it

[16] = biological target: TY145 (SEQ ID NO 3) variant L184Y; test: as above
TY145 (SEQ ID NO 3) variant L184Y, sequence (chain, as listed by the source L184Y L184Y limits assumed): as the sequence (chain, as listed by the source G182A G182A limits assumed) above, with A182G, L184Y counted along it

[17] = biological target: TY145 (SEQ ID NO 3) variant Q70A; test: as above
[18] = biological target: TY145 (SEQ ID NO 3) variant Q70F; test: as above
[19] = biological target: TY145 (SEQ ID NO 3) variant Q70N; test: as above
[20] = biological target: TY145 (SEQ ID NO 3) variant S111R; test: as above
[21] = biological target: TY145 (SEQ ID NO 3) variant S114A; test: as above
[22] = biological target: TY145 (SEQ ID NO 3) variant Y240R; test: as above
[23] = biological target: TY145 (SEQ ID NO 3) variant S173P + S175P; test: Ki fitted from Suc-AAPF-pNA activity in Model B detergent; IF relative to SEQ ID NO 3 comprising S173P + S175P (the reference itself)
TY145 (SEQ ID NO 3) variant S173P + S175P, sequence (chain, as listed by the source S173P S175P S173P S175P limits assumed): as the sequence (chain, as listed by the source G182A G182A limits assumed) above, with S173P, S175P, A182G counted along it

TY145 (SEQ ID NO 3) = test: Ki fitted from Suc-AAPF-pNA activity at 8 inhibitor concentrations in Model B detergent; IF relative to SEQ ID NO 3 (the reference itself)
[24] = biological target: TY145 (SEQ ID NO 3) variant S173P + S175P + F180Y + G182A; test: Ki fitted from Suc-AAPF-pNA activity in Model B detergent; IF relative to SEQ ID NO 3 comprising S173P + S175P + F180Y (second printed row for this variant)
[25] = biological target: TY145 (SEQ ID NO 3) variant S173P + S175P + F180Y + L184F; test: as above
[26] = biological target: TY145 (SEQ ID NO 3) variant S173P + S175P + I178F + F180Y; test: as above

Substance: Inhibitor 1: Cbz-Gly-Ala-NHCH(CH2C6H4pOH)C(OH)(SO3Na)-H (peptide)
- IF (binding constant improvement factor, relative Ki) [1]: 1.05
- IF (binding constant improvement factor, relative Ki) [2]: 1.19
- IF (binding constant improvement factor, relative Ki) [3]: 2.31
- IF (binding constant improvement factor, relative Ki) [4]: 1.73
- IF (binding constant improvement factor, relative Ki) [5]: 3.44
- IF (binding constant improvement factor, relative Ki) [6]: 1.38
- IF (binding constant improvement factor, relative Ki) [7]: 2.89
- IF (binding constant improvement factor, relative Ki) [8]: 1.22
- IF (binding constant improvement factor, relative Ki) [9]: 11.3
- IF (binding constant improvement factor, relative Ki) [10]: 1.49
- IF (binding constant improvement factor, relative Ki) [11]: 1
- IF (binding constant improvement factor, relative Ki) [12]: 1.86
- IF (binding constant improvement factor, relative Ki) [13]: 3.68
- IF (binding constant improvement factor, relative Ki) [14]: 4.94
- IF (binding constant improvement factor, relative Ki) [15]: 2.27
- IF (binding constant improvement factor, relative Ki) [16]: 4.47
- IF (binding constant improvement factor, relative Ki) [17]: 2.54
- IF (binding constant improvement factor, relative Ki) [18]: 8.53
- IF (binding constant improvement factor, relative Ki) [19]: 3.33
- IF (binding constant improvement factor, relative Ki) [20]: 1.11
- IF (binding constant improvement factor, relative Ki) [21]: 2.14
- IF (binding constant improvement factor, relative Ki) [22]: 1.19
- IF (binding constant improvement factor, relative Ki) [23]: 1
- IF (binding constant improvement factor, relative Ki) (TY145 (SEQ ID NO 3)): 1
- IF (binding constant improvement factor, relative Ki) [24]: 2.01
- IF (binding constant improvement factor, relative Ki) [25]: 3.02
- IF (binding constant improvement factor, relative Ki) [26]: 1.83

From patent US20170342349A1, “STABILIZED ENZYME COMPOSITIONS” (NOVOZYMES A/S, priority 2014, published 2017)
